Assay results published in PMC4491177, “Co-translational capturing of nascent ribosomal proteins by their dedicated chaperones” (Nature Communications, 2015).
Positions count from the first letter of the chain named. Names and notes keep the numbering of the source. Ends that are not written are not given here.

Key:
Sqt1-Flag = assay: in vitro binding assay, Ni-affinity co-purification of Sqt1-Flag; parameters: species or system S. cerevisiae; conditions: co-expression in E. coli, C-terminally (His)6-tagged Rpl10, Ni-affinity, SDS–PAGE and western blot
Method: For in vitro binding assays between Rpl10-(His)6 and Sqt1-Flag or between ctRpl10-(His)6 and ctSqt1, proteins were co-expressed from pETDuet-1 (Novagen) in Rosetta(DE3) (Novagen) or BL21(DE3) (Novagen) E. coli cells, respectively. Cells were grown in 200 ml of lysogeny broth medium and protein expression was induced at an OD600 of ∼0.6–0.8 by the addition of isopropyl-β-D-thiogalactoside to a final concentration of 0.5 mM. After 5 h of growth at 30 °C, cells were harvested and stored at −80 °C. Cells were resuspended in 25 ml lysis buffer (50 mM Tris-HCl (pH 7.5), 200 mM NaCl, 1.5 mM MgCl2 and 5% glycerol) and lysed with a M-110L Microfluidizer (Microfluidics). The lysate (30 ml volume) was adjusted by the addition of 300 μl 10% NP-40 to 0.1% NP-40 (note that from here onwards all buffers contained 0.1% NP-40). An aliquot of 100 μl of total extract (sample T) was taken and mixed with 100 μl of 6 × loading buffer. The total extract was then centrifuged at 4 °C for 20 min at 14,000 r.p.m. The soluble extract was transferred to a 50-ml Falcon tube and, as above, an aliquot of 100 μl of soluble extract (sample S) was taken and mixed with 100 μl of 6 × loading buffer. The insoluble pellet fraction (sample P) was resuspended in 3 ml of lysis buffer, and 10 μl thereof were mixed with 90 μl of lysis buffer and 100 μl of 6 × loading buffer. […]

[1] = molecular target: T1, ScSqt1.53C (WD-repeat β-propeller domain of Sqt1) (Saccharomyces cerevisiae, UniProt P35184); assay: isothermal titration calorimetry (ITC), S. cerevisiae; type: binding; conditions: for K / N / ΔH / ΔS: ScSqt1.53C, 15 °C, One Set of Sites fit
T1 construct: ScSqt1.53C (residues 53–431); (His)6 (C); made in house; host or cells: E. coli Rosetta(DE3)
T1 sequence (P35184 53-431): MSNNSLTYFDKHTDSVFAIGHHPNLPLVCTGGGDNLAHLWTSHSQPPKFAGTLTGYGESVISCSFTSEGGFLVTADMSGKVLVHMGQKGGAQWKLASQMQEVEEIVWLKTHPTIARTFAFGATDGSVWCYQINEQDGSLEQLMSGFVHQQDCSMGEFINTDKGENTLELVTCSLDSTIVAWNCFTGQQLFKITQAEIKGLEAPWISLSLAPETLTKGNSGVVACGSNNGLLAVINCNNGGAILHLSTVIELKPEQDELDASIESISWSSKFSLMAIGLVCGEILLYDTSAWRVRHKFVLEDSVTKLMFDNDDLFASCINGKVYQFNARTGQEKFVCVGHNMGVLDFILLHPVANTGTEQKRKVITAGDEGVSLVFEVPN
Method: ITC experiments were performed on a MicroCal ITC 2000 instrument (GE Healthcare). The following peptides, corresponding to the N-terminal 19 (without N-terminal methionine) or 20 amino acids of S. cerevisiae and C. thermophilum Rpl10, were synthesized with a free acid group at the C terminus (peptides&elephants): Rpl10(1–20) NH2-[…]-COOH, Rpl10(2–20) NH2-[…]-COOH, ctRpl10(1–20) NH2-[…]-COOH and ctRpl10(2–20) NH2-[…]-COOH. Peptides (1 mg each) were dissolved in the appropriate volume of gel-filtration buffer (20 mM HEPES–NaOH (pH 7.5), 200 mM NaCl, 20 mM KCl and 20 mM MgCl2), which was used for the purification of ScSqt1.53C and ctSqt1.52C, to obtain 1 mM stock solutions. Concentrations of proteins were determined by measuring the A280 using a NanoDrop Lite spectrophotometer (Thermo Scientific). For determination of the C. thermophilum Sqt1/L10-N binding, 200 μl of ctSqt1.52C (10 μM) was added to the sample cell and 2 μl of 100 μM solutions of the peptides was titrated in at 25 °C. For determination of the S. cerevisiae Sqt1/L10-N binding, 200 μl of ScSqt1.53C (100 μM) was added to the sample cell and 2 μl of 1 mM solutions of the peptides were titrated in at 15 °C. ITC data were processed using the Origin ITC Software (OriginLab) and thermodynamic parameters were obtained by fitting the data to a One Set of Sites binding model.

Sqt1 = assay: Y2H interaction with Sqt1; type: binding, S. cerevisiae; conditions: reporter strain PJ69-4A, HIS3 and ADE2 reporters, 3 days at 30 °C
Method: For Y2H interaction assays, plasmids expressing bait proteins, fused to the Gal4 DNA-binding domain (G4BD), and prey proteins, fused to the Gal4 activation domain (G4AD), were co-transformed into reporter strain PJ69-4A. Y2H interactions were documented by spotting representative transformants in 10-fold serial dilution steps onto SC-Trp-Leu, SC-Trp-Leu-His (HIS3 reporter) and SC-Trp-Leu-Ade (ADE2 reporter) plates, which were incubated for 3 days at 30 °C. Growth on SC-Trp-Leu-His plates is indicative of a weak/moderate interaction, whereas only relatively strong interactions permit growth on SC-Trp-Leu-Ade plates.

ctSqt1.52C-(His)6 [2] = molecular target: T2, ctSqt1.52C-(His)6 (Chaetomium thermophilum); assay: ITC
T2 chain: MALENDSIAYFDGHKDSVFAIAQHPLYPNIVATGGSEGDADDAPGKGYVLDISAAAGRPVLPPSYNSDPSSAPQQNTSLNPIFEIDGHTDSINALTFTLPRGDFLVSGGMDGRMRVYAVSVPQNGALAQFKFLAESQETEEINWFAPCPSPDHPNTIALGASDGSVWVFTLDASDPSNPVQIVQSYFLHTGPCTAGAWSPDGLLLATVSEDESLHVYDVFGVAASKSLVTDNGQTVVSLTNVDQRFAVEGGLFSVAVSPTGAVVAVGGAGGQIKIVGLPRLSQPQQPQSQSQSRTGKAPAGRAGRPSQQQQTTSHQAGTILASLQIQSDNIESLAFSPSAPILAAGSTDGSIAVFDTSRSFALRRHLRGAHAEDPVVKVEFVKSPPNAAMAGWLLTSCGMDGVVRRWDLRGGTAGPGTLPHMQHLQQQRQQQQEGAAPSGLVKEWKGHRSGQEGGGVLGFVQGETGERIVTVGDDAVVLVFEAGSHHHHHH

ctSqt1.52C-(His)6 [3] = molecular target: T2, ctSqt1.52C-(His)6; assay: ITC; 200 μl ctSqt1.52C (10 μM) in the cell, 2 μl injections of 100 μM peptide, 25 °C; 20 mM HEPES–NaOH (pH 7.5), 200 mM NaCl, 20 mM KCl, 20 mM MgCl2; One Set of Sites model; approximate Kd
Sqt1.53C-(His)6 [4] = molecular target: T3, Sqt1.53C-(His)6 (S. cerevisiae, UniProt P35184 53-431); assay: ITC
T3 chain: T1 sequence (P35184 53-431)

Sqt1.53C-(His)6 [5] = molecular target: T4, Sqt1.53C-(His)6 (S. cerevisiae, UniProt P35184 53-431); assay: ITC; 200 μl ScSqt1.53C (100 μM) in the cell, 2 μl injections of 1 mM peptide, 15 °C; 20 mM HEPES–NaOH (pH 7.5), 200 mM NaCl, 20 mM KCl, 20 mM MgCl2; One Set of Sites model; approximate Kd; conditions: both partners purified
T4 construct: Sqt1, S. cerevisiae, residues 53–431 (WD-repeat β-propeller domain); the ITC methods name only 'ScSqt1.53C'; the only free Sqt1.53C whose purification is described is Sqt1.53C-(His)6; also called ScSqt1.53C; source: E. coli Rosetta(DE3), purified (Ni-NTA, size-exclusion chromatography)
T4 sequence (looked up): T1 sequence (P35184 53-431)

L10-N: N-terminal residues of Rpl10 (general term; co-crystals and pull-downs use co-expressed Rpl10(1–20)-(His)6) (MARRPARCYRYQKNKPYPKS; not fully specified)
co-purification with / interaction with Sqt1 (Sqt1-Flag): required and sufficient for a robust interaction both with full-length Sqt1 and its β-propeller domain

MARRPARCYRYQKNKPYPKS [ScL10-N(1-20)]
K [1]: 2.33E7±1.79E7
N [1]: 1.09±0.00692
ΔH [1]: −1.101E4 +/−158.6
ΔS [1]: −4.45

amino acids 1–20 of Rpl10: amino acids 1–20 of Rpl10, Y2H bait fused to G4BD (MARRPARCYRYQKNKPYPKS; also: fused to Gal4 DNA-binding domain; UniProt P41805 1-20, looked up, fragment)
Y2H interaction with Sqt1 (Sqt1): sufficient to mediate the interaction with Sqt1

ARRPARCYRYQKNKPYPKS [ScL10-N(2–20)]
K [1]: 4.78E7±2.57E7
N [1]: 1.076±0.0048
ΔH [1]: −1.187E4±102.9
ΔS [1]: −6.02
preference of Sqt1 for the L10-N peptide lacking Met1 ([1]; vs peptide containing Met1, S. cerevisiae): only a slight preference

B1: ctRpl10(1–20) peptide (peptide)
peptide: MARRPARCYRYCKNKPYPKS
Ka (ctSqt1.52C-(His)6 [2]): 2.26e+06 M⁻¹
Kd (ctSqt1.52C-(His)6 [3]): 442 nM

B2: Rpl10(1–20) peptide (peptide)
peptide: MARRPARCYRYQKNKPYPKS
notes: Rpl10 (uL16), S. cerevisiae, N-terminal 20 amino acids; free amino group at the N terminus, free acid group at the C terminus; also called ScL10-N peptide including Met1 (amino acids 1–20); source: synthetic peptide (peptides&elephants)
Ka (Sqt1.53C-(His)6 [4]): 2.33e+07 M⁻¹
Kd (Sqt1.53C-(His)6 [5]): ~43 nM

B3: ctRpl10(2–20) peptide (peptide)
peptide: ARRPARCYRYCKNKPYPKS
Ka (ctSqt1.52C-(His)6 [2]): 2.82e+07 M⁻¹
Kd (ctSqt1.52C-(His)6 [3]): 35 nM

B4: first 64 amino acids of Rpl10: first 64 amino acids of Rpl10, Y2H bait (protein, UniProt P41805 1-64, looked up, fragment)
chain: MARRPARCYRYQKNKPYPKSRYNRAVPDSKIRIYDLGKKKATVDEFPLCVHLVSNELEQLSSEA
modifications: Y2H bait
notes: first 64 amino acids of Rpl10, Y2H bait
Y2H interaction with Sqt1 (Sqt1): binds

B5: Arg10 to glutamate: Rpl10 variant, Arg10 mutated to glutamate (protein, UniProt P41805 2-221, looked up, variant R10E)
Large ribosomal subunit …: ARRPARCYEYQKNKPYPKSRYNRAVPDSKIRIYDLGKKKATVDEFPLCVHLVSNELEQLSSEALEAARICANKYMTTVSGRDAFHLRVRVHPFHVLRINKMLSCAGADRLQQGMRGAWGKPHGLAARVDIGQIIFSVRTKDSNKDVVVEGLRRARYKFPGQQKIILSKKWGFTNLDRPEYLKKREAGEVKDDGAFVKFLSKKGSLENNIREFPEYFAAQA
Y2H interaction with Sqt1 (Sqt1): abolished

B6: Arg4 to glutamate: Rpl10 variant, substitution of Arg4 to glutamate (protein, UniProt P41805 2-221, looked up, variant R4E)
Large ribosomal subunit …: B5 Large ribosomal subunit … with R3E, E9R
Y2H interaction with Sqt1 (Sqt1): only slightly reduced the interaction with Sqt1

B7: Rpl10-(His)6: C-terminally (His)6-tagged Rpl10 (protein)
chain: MARRPARCYRYQKNKPYPKSRYNRAVPDSKIRIYDLGKKKATVDEFPLCVHLVSNELEQLSSEALEAARICANKYMTTVSGRDAFHLRVRVHPFHVLRINKMLSCAGADRLQQGMRGAWGKPHGLAARVDIGQIIFSVRTKDSNKDVVVEGLRRARYKFPGQQKIILSKKWGFTNLDRPEYLKKREAGEVKDDGAFVKFLSKKGSLENNIREFPEYFAAQA
modifications: left off: (His)6, C-terminal, kept
notes: C-terminally (His)6-tagged Rpl10
co-purification with / interaction with Sqt1 (Sqt1-Flag): efficient co-purification of Sqt1-Flag

B8: Rpl10(2–20) peptide (peptide)
peptide: ARRPARCYRYQKNKPYPKS
notes: Rpl10 (uL16), S. cerevisiae, N-terminal 19 amino acids without the N-terminal methionine; free amino group at the N terminus, free acid group at the C terminus; also called ScL10-N peptide lacking Met1 (amino acids 2–20); source: synthetic peptide (peptides&elephants)
Ka (Sqt1.53C-(His)6 [4]): 4.78e+07 M⁻¹
Kd (Sqt1.53C-(His)6 [5]): ~21 nM
